Source: publication PMC2409435 (Nature, 2007)

Target: Recombinant MRE11-RAD50-NBS1 (MRN) complex (human | , UniProt P49959 1-708; Q92878 1-1312; O60934 1-754)
Test: co-IP

Recombinant MRE11-RAD50-NBS1 (MRN) complex, sequence (P49959 whole entry, chain 1 of 3): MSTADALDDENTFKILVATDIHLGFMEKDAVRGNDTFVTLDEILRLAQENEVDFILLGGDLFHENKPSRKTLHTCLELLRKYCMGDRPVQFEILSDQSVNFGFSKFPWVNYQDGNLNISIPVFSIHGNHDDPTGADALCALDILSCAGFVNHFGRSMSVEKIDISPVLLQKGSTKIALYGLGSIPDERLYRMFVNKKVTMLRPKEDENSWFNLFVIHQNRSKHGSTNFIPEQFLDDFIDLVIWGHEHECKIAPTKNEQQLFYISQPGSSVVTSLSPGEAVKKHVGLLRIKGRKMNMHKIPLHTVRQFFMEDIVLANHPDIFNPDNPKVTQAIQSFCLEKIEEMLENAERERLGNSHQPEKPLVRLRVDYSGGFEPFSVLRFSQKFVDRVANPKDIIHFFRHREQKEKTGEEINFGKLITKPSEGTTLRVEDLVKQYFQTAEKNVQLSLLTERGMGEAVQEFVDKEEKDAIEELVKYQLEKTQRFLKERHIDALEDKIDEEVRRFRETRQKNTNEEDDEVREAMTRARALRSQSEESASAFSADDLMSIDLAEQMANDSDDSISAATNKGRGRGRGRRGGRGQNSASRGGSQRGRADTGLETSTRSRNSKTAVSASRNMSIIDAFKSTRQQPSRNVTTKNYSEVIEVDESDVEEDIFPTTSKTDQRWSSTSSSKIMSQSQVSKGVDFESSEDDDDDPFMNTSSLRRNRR
Recombinant MRE11-RAD50-NBS1 (MRN) complex, sequence (Q92878 whole entry, chain 2 of 3): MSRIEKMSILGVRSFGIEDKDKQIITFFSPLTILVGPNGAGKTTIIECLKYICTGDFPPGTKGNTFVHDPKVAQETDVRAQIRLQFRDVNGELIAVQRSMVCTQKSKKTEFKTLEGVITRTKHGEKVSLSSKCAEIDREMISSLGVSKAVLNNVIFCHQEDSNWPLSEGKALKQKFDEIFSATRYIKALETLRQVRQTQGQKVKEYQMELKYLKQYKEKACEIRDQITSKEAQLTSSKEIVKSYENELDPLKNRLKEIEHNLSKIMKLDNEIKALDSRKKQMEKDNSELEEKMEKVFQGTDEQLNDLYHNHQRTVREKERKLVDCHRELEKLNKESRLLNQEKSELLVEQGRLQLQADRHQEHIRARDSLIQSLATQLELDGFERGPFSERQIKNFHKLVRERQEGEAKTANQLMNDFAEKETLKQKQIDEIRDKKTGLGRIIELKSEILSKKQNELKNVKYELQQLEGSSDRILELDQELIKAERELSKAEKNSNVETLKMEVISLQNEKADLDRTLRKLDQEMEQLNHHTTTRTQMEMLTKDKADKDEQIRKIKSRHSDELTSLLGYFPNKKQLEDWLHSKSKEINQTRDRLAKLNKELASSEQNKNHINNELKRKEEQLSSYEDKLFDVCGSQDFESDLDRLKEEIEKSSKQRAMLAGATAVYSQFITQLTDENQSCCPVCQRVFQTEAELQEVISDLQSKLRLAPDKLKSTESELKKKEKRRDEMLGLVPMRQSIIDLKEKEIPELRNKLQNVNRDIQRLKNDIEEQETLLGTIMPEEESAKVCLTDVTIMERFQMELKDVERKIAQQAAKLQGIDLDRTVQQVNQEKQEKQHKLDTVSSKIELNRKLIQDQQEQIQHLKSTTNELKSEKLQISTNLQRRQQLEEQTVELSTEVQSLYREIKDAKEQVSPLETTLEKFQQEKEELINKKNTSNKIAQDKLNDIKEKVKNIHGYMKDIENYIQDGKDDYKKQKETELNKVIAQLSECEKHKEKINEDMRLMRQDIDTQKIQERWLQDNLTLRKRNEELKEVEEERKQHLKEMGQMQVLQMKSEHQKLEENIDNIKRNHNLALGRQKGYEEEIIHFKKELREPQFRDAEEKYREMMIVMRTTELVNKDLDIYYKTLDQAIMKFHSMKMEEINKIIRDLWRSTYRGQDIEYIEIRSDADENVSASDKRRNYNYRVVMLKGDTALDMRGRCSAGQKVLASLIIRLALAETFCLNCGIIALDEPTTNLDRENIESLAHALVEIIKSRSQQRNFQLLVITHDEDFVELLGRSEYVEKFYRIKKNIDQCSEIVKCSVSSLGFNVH
Recombinant MRE11-RAD50-NBS1 (MRN) complex, sequence (O60934 whole entry, chain 3 of 3): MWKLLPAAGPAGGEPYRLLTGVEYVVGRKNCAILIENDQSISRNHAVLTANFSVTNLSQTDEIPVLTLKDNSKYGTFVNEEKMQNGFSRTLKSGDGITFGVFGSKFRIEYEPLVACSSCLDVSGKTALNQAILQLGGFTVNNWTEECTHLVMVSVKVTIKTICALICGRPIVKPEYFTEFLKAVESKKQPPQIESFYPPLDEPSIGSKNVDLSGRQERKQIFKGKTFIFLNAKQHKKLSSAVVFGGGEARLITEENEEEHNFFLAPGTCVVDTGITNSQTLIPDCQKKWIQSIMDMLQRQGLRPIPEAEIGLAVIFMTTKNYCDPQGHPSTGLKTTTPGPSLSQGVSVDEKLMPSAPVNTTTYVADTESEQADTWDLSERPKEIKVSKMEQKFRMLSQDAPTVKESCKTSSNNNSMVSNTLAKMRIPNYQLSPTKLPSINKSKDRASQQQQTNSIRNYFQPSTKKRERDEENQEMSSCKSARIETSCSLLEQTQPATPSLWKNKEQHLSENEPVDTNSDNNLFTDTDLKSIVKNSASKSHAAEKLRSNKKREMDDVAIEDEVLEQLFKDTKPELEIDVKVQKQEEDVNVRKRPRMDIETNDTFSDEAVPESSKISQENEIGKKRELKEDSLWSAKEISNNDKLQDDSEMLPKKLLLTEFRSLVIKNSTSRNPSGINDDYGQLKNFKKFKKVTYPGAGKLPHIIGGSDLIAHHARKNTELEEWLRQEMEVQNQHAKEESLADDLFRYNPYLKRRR

B1: Recombinant FLAG-GST-CtIP-6H (natural protein, human, UniProt Q99708 1-897, looked up)
chain: MNISGSSCGSPNSADTSSDFKDLWTKLKECHDREVQGLQVKVTKLKQERILDAQRLEEFFTKNQQLREQQKVLHETIKVLEDRLRAGLCDRCAVTEEHMRKKQQEFENIRQQNLKLITELMNERNTLQEENKKLSEQLQQKIENDQQHQAAELECEEDVIPDSPITAFSFSGVNRLRRKENPHVRYIEQTHTKLEHSVCANEMRKVSKSSTHPQHNPNENEILVADTYDQSQSPMAKAHGTSSYTPDKSSFNLATVVAETLGLGVQEESETQGPMSPLGDELYHCLEGNHKKQPFEESTRNTEDSLRFSDSTSKTPPQEELPTRVSSPVFGATSSIKSGLDLNTSLSPSLLQPGKKKHLKTLPFSNTCISRLEKTRSKSEDSALFTHHSLGSEVNKIIIQSSNKQILINKNISESLGEQNRTEYGKDSNTDKHLEPLKSLGGRTSKRKKTEEESEHEVSCPQASFDKENAFPFPMDNQFSMNGDCVMDKPLDLSDRFSAIQRQEKSQGSETSKNKFRQVTLYEALKTIPKGFSSSRKASDGNCTLPKDSPGEPCSQECIILQPLNKCSPDNKPSLQIKEENAVFKIPLRPRESLETENVLDDIKSAGSHEPIKIQTRSDHGGCELASVLQLNPCRTGKIKSLQNNQDVSFENIQWSIDPGADLSQYKMDVTVIDTKDGSQSKLGGETVDMDCTLVSETVLLKMKKQEQKGEKSSNEERKMNDSLEDMFDRTTHEEYESCLADSFSQAADEEEELSTATKKLHTHGDKQDKVKQKAFVEPYFKGDERETSLQNFPHIEVVRKKEERRKLLGHTCKECEIYYADMPAEEREKKLASCSRHRFRYIPPNTPENFWEVGFPSTQTCMERGYIKEDLDPCPRPKRRQPYNAIFSPKGKEQKT
- binding result: binds
